Patent US20260317426 (published 2026)

Experiments:
[1] = molecular target: T1, MICA ECD (alleles *001, *002, *004, *008) (human, UniProt Q29983); assay: BLI, monovalent, lowest of MICA alleles
T1 chain: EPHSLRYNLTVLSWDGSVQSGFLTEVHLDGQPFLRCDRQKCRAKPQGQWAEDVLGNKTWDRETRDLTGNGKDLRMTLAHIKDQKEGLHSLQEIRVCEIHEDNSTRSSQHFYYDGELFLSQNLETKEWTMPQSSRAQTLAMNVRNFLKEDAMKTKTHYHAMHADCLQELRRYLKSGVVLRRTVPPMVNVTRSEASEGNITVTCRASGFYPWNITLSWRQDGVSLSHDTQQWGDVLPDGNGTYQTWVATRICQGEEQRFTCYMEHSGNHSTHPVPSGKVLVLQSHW

MICB*004 ECD = molecular target: T2, MICB*004 ECD (human, UniProt Q29980); assay: BLI, monovalent
T2 chain: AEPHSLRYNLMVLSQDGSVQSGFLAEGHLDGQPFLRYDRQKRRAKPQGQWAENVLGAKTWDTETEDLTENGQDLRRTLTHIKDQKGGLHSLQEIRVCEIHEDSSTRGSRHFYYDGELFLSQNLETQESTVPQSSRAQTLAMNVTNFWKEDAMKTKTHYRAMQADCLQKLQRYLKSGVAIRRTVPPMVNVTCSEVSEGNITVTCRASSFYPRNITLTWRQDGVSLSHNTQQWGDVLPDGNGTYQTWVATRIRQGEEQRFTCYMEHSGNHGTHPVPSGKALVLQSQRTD

Kd [1]: 0.77 nM
Kd (MICB*004 ECD): 11.4 nM
B1: CLN-619 (3F9H1L3L) (antibody, V domains shown)
VH: QVQLVESGGGLVKPGGSLRLSCAASGFTFSNYAMSWIRQAPGKGLEWVSYISPGGDYIYYADSVKGRFTISRDNAKNSLYLQMNSLRAEDTAVYYCTTDRRHYGSYAMDYWGQGTLVTVSS
VL: DIVMTQSPLSLPVTPGEPASISCRSSKSLLHSNLNTYLYWFLQKPGQSPQILIYRMSNLASGVPDRFSGSGSGTAFTLKISRVEAEDVGVYYCMQHLEYPFTFGPGTKLEIKR
